Source: paper PMC2756145
Changes are numbered by the printed parent chain. Read-outs that look alike come from different tables or passages of the source.

What was measured:
[1] = biological target: T1, Pot1pC (Schizosaccharomyces pombe, UniProt O13988 178-389); assay: EMSA
T1 sequence: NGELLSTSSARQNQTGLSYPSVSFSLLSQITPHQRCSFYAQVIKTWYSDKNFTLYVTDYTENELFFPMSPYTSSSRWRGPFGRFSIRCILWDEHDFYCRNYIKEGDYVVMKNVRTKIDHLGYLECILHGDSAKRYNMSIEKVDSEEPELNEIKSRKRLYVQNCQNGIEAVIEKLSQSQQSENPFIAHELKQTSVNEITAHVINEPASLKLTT

[2] = biological target: T1, Pot1pC; assay: EMSA; remark: listed apart in the source
[3] = biological target: T2, Pot1pN (Schizosaccharomyces pombe, UniProt O13988 1-185); assay: filter binding
T2 sequence: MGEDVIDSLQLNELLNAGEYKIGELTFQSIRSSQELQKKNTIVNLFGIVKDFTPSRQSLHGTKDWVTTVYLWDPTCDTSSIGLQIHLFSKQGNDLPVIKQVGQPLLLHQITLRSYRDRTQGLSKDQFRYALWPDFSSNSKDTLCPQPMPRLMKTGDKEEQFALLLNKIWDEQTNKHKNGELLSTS

[4] = biological target: T3, Pot1pN_D64A (Schizosaccharomyces pombe, UniProt O13988 1-185, D64A); assay: filter binding
T3 sequence: T2 sequence with D64A

[5] = biological target: T4, Pot1pN_Y115A (Schizosaccharomyces pombe, UniProt O13988 1-185, Y115A); assay: filter binding
T4 sequence: T2 sequence with Y115A

[6] = biological target: T5, Pot1pN_T62A (Schizosaccharomyces pombe, UniProt O13988 1-185, T62A); assay: filter binding
T5 sequence: T2 sequence with T62A

[7] = biological target: T6, Pot1pN_S123A (Schizosaccharomyces pombe, UniProt O13988 1-185, S123A); assay: filter binding
T6 sequence: T2 sequence with S123A

[8] = biological target: T7, Pot1-DBD_V97A (Schizosaccharomyces pombe, UniProt O13988 1-389, V97A); assay: filter binding
T7 sequence: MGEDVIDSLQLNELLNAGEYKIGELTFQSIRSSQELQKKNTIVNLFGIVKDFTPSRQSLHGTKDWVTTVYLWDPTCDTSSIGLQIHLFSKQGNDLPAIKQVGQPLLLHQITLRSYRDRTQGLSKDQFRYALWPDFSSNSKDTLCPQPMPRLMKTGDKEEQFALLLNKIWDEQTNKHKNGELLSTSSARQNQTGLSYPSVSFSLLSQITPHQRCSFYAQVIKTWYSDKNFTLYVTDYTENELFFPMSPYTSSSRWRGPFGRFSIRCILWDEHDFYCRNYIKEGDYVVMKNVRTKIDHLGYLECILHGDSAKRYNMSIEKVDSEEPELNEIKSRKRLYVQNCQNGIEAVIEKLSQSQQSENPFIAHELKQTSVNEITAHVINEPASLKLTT

[9] = biological target: T8, Pot1-DBD_Q91A (Schizosaccharomyces pombe, UniProt O13988 1-389, Q91A); assay: filter binding
T8 sequence: T7 sequence with Q91A, A97V

[10] = biological target: T9, Pot1-DBD (Schizosaccharomyces pombe, UniProt O13988 1-389); assay: filter binding
T9 sequence: T7 sequence with A97V

B1: 11mer-3' (ssDNA)
DNA: GGTTACGGTTA
**Q.** For B1, which Kd [1] is on record?
**A.** Its Kd is 600 ± 100 nM.

B2: 8mer-5' (ssDNA)
DNA: ACGGTTAC
**Q.** B2 was tested. Which Kd [2] did it give?
**A.** The Kd was 15 ± 2 µM.

B3: 7mer-5' (ssDNA)
DNA: CGGTTAC
**Q.** How did the Kd [2] turn out when B3 was run?
**A.** Its Kd is 35 ± 8 µM.

B4: 9mer_G1C (ssDNA)
DNA: CGTTACGGT
**Q.** How did the Kd [1] turn out when B4 was run?
**A.** Its Kd is 1000 ± 100 nM.

B5: 9mer_G2C (ssDNA)
DNA: GCTTACGGT
**Q.** With B5 as the binder, how does the Kd [1] read?
**A.** Its Kd is 3000 ± 600 nM.

B6: 9mer_T3A (ssDNA)
DNA: GGATACGGT
**Q.** How did the Kd [1] turn out when B6 was run?
**A.** The Kd was 600 ± 100 nM.

B7: 9mer_T4A (ssDNA)
DNA: GGTAACGGT
**Q.** How did the Kd [1] turn out when B7 was run?
**A.** The Kd was 700 ± 300 nM.

B8: 9mer_C6G (ssDNA)
DNA: GGTTAGGGT
**Q.** For B8, which Kd [1] is on record?
**A.** The Kd was 300 ± 50 nM.

B9: 9mer_G7C (ssDNA)
DNA: GGTTACCGT
**Q.** With B9 as the binder, how does the Kd [1] read?
**A.** The Kd was 3000 ± 500 nM.

B10: 9mer_G8C (ssDNA)
DNA: GGTTACGCT
**Q.** For B10, which Kd [1] is on record?
**A.** Its Kd is 800 ± 200 nM.

B11: 10mer-3' (ssDNA)
DNA: GGTTACGGTT
**Q.** Which Kd [1] does the source give for B11 here?
**A.** Its Kd is 300 ± 40 nM.

B12: 9mer_T9A (ssDNA)
DNA: GGTTACGGA
**Q.** For B12, which Kd [1] is on record?
**A.** Its Kd is 2000 ± 400 nM.

B13: 6mer (ssDNA)
DNA: GGTTAC
**Q.** With B13 as the binder, how does the Kd [3] read?
**A.** The Kd was 30 ± 20 nM.

**Q.** And the Kd [4]?
**A.** The Kd was 400 ± 30 nM.

**Q.** And the Kd [5]?
**A.** The Kd was 300 ± 20 nM.

**Q.** What about the Kd [6] of the same binder?
**A.** Its Kd is 500 ± 50 nM.

**Q.** What about the Kd [7] of the same binder?
**A.** The Kd was 100 ± 10 nM.

B14: 9mer-3' (ssDNA)
DNA: GGTTACGGT
**Q.** With B14 as the binder, how does the Kd [1] read?
**A.** The Kd was 400 ± 70 nM.

B15: 12mer_G1C (ssDNA)
DNA: CGTTACGGTTAC
**Q.** B15 was tested. Which Kd [8] did it give?
**A.** The Kd was 70 ± 7 nM.

**Q.** What about the Kd [9] of the same binder?
**A.** Its Kd is 50 ± 6 nM.

B16: 8mer-3' (ssDNA)
DNA: GGTTACGG
**Q.** How did the Kd [1] turn out when B16 was run?
**A.** The Kd was 1900 ± 300 nM.

B17: 15mer (ssDNA)
DNA: GGTTACGGTTACGGT
**Q.** Does B17 bind [10]?
**A.** Result: binds

**Q.** And the Kd [8]?
**A.** The Kd was 0.04 ± 0.004 nM.

**Q.** What about the Kd [9] of the same binder?
**A.** The Kd was 0.04 ± 0.003 nM.

B18: 24mer (ssDNA)
DNA: GGTTACGGTTACGGTTACGGTTAC
**Q.** Which results are given for B18?
**A.** Kd [8]: 0.06 ± 0.004 nM; Kd [9]: 0.06 ± 0.003 nM

B19: 12mer_A5T (ssDNA)
DNA: GGTTTCGGTTAC
**Q.** How did the Kd [8] turn out when B19 was run?
**A.** Its Kd is 50 ± 4 nM.

B20: 7mer-3' (ssDNA)
DNA: GGTTACG
**Q.** For B20, which Kd [2] is on record?
**A.** Its Kd is 10.5 ± 1.9 µM.

B21: 12mer_C6G (ssDNA)
DNA: GGTTAGGGTTAC
**Q.** For B21, which Kd [8] is on record?
**A.** The Kd was 100 ± 10 nM.

B22: C-rich complementary sequence (ssDNA)
DNA: CCAATGCCCAATGC
**Q.** Does B22 bind [1]?
**A.** Result: no binding
